Assays:
[1] = target: murine BAFF (murine, UniProt Q9WU72 127-309, limits assumed); assay: not described
[2] = target: T1, recombinant human soluble BAFF (human, UniProt Q9Y275 134-285); assay: MSD-SET with biotinylated recombinant human soluble BAFF, N=3
T1 construct: domain: soluble BAFF; also called human BAFF; soluble human BAFF trimer
Protocol: Binding affinity and stoichiometry of the exemplified bispecific antibody to human BAFF is measured by MSD-SET using purified recombinant human soluble BAFF (expressed from HEK293 cells). Purified recombinant BAFF is biotinylated using EZ-Link Sulfo-NHS-LC biotin reagent (Thermo Scientific, p/n. 21335).
Multi-array 96-well assay plates (Meso Scale Discovery, p/n. L15XA-3) are coated with 3.5 μg/mL of bispecific antibody and incubated overnight at 4° C. Following incubation, the plates are washed three times with PBS, then blocked using 3% Blocker A solution for 45 minutes at room temperature. The plates are then washed again with PBS. Exemplified bispecific antibody, starting at a concentration of 224 pM, is serially diluted (using 2-fold dilutions) in a V-bottom 96-well plate creating 12 different bispecific antibody concentrations. 7 pM of biotinylated recombinant BAFF is mixed with each dilution of exemplified bispecific antibody and then incubated at 37° C. for 36-48 hours (to reach equilibrium). Equilibrated samples are added to a well of the MSD multi-array 96-well assay plate previously coated with exemplified bispecific antibody; samples are mixed for 2.5 minutes, and then washed three times with PBS. […] 1× Read Buffer T (Meso Scale Discovery, p/n. R92TC-1) is added to each well and plates are read on a MSDSI6000 plate reader (Meso Scale Discovery, Rockville Md.). […]

[3] = target: FcγIIIa (V158) receptor (UniProt P08637 17-254); assay: cell-based or functional assay
Chain of FcγIIIa (V158) receptor (P08637 17-254 F176V): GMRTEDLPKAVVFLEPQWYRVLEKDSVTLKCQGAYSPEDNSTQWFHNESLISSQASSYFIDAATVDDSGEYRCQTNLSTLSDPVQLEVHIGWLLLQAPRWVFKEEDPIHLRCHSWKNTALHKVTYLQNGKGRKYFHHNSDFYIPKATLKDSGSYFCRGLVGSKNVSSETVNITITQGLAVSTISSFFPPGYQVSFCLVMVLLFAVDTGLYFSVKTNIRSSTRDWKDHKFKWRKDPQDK

[4] = target: FcγIIIa (F158) receptor (UniProt P08637 17-254); assay: cell-based or functional assay
Chain of FcγIIIa (F158) receptor (P08637 17-254): as the sequence (P08637 17-254 F176V) above, with V160F counted along it

T1 sequence (Q9Y275 134-285 limits assumed): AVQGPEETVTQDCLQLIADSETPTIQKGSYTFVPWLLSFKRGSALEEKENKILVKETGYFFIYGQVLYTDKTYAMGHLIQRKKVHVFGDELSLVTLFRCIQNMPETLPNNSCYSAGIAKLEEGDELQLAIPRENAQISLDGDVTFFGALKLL
Chain of murine BAFF (Q9WU72 127-309 limits assumed): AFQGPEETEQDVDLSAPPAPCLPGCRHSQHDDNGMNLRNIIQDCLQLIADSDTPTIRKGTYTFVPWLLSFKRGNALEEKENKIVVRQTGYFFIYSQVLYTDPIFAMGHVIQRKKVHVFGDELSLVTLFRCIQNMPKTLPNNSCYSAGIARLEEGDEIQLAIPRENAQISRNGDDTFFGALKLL

B1: exemplified bispecific antibody of Table 1 (anti-CD20 IgG1 mAb with anti-BAFF scFv linked at the N-terminus of each heavy chain) (bispecific antibody)
heavy: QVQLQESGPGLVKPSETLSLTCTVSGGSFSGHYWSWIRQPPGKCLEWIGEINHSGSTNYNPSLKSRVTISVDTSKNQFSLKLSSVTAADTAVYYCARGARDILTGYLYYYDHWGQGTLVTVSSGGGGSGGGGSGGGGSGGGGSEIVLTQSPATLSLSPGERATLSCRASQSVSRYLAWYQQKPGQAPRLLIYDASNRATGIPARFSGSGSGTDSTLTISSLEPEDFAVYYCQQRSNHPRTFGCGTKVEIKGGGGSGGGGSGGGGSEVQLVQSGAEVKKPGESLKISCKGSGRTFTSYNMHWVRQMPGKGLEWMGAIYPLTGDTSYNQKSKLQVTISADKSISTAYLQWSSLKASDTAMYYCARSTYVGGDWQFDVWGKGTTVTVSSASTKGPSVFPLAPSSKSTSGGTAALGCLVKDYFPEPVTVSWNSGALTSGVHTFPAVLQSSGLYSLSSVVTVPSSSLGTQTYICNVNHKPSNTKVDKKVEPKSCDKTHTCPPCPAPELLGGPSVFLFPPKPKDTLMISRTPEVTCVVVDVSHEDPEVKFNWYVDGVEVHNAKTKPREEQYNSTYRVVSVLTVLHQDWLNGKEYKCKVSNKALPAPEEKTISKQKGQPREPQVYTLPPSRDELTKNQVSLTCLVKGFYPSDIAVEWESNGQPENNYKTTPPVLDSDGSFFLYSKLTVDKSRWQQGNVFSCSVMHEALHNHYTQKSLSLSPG
light: EIVLTQSPGTLSLSPGERATLSCRASSSVPYIHWYQQKPGQAPRLLIYATSALASGIPDRFSGSGSGTDFTLTISRLEPEDFAVYYCQQWLSHPPTFGQGTKLEIKRTVAAPSVFIFPPSDEQLKSGTASVVCLLNNFYPREAKVQWKVDNALQSGNSQESVTEQDSKDSTYSLSSTLTLSKADYEKHKVYACEVTHQGLSSPVTKSFNRGEC
modifications: glycosylated at asparagine residue 566 of SEQ ID NO:1
notes: also called Exemplified Bispecific Ab; exemplified antibody
fold reduction in binding as compared to human BAFF [1]: ~250 fold
Kd [2]: 0.3 pM
EC50 of NFAT-luciferase reporter signal (ADCC), WIL2-S + Jurkat (V158) [3]: 4.61 pM
EC50 of NFAT-luciferase reporter signal (ADCC), WIL2-S + Jurkat (F158) [4]: 31.4 pM
